Square brackets hold non-standard residues; d marks the D form. Ends that are not written are not given here. sY = N[C@@H](Cc1ccc(OS(=O)(=O)O)cc1)C(=O)O

1 molecule from PMC2700308 (Biochemistry, 2009) can be followed below.

The experiment has as its target Full-length gp120 from the subtype B YU2 HIV-1 strain (HIV-1, subtype B, strain YU2, UniProt P35961 32-498). Nature of the experiment: ITC.

B1: S22 peptide, 22 amino acid tyrosine-sulfated peptide corresponding to the CCR5 N-terminus (peptide)
peptide: MDYQVSSPI[sY]DIN[sY]YTSEPSQK
The molecule B1 returned a dissociation constant (Kd) not below 1000 µM.
